Measured values as given in patent US7794710.

Biological target: human B7-H1 (hB7-H1) on the cell surface (human) (UniProt Q9NZQ7)
Assay: cell-based or functional assay

UniProt Q9NZQ7, sequence (Q9NZQ7 19-290 limits assumed): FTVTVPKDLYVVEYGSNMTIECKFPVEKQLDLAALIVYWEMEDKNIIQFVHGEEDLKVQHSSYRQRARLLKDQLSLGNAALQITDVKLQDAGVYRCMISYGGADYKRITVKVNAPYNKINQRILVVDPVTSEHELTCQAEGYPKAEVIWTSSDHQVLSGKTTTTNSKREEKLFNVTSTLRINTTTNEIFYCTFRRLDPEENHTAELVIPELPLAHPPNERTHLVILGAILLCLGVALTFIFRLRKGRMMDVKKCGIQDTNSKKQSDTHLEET

inhibition of apoptosis of M15 CTL cultured with B7-H1/624mel cells: > 50%
Substance: 5H1 mAb specific for hB7-H1 (antibody)
